Results taken from patent publication US4746508A, “Drug administration” (Beth Israel Hospital Assn., priority 1984, dated 1988).
Each block holds one molecule with its values, some of them ahead of it.

Experiments:
[1] = HPLC k' factor value (hydrophobicity) of unconjugated steroid; type: physicochemical; details: octadecylsilane column, 75% methanol in water, apparent pH 5.0
Method: Preferably the steroid used in the invention is characterized in that the unconjugated derivative of the steroid is retained on a hydrophobic column for a length of time sufficient to produce a k' factor value of at least about 4, the k' factor value being obtained by subjecting a monomeric solution of 1 mg/ml of such steroid derivative to high-performance liquid column chromatography at 3,000 psi, using a 250×4.6 mm column having octadecylsilane-coated 5 μm silica particles as the stationary phase and a mobile phase, delivered at 1.0 ml/min., consisting of 75% methanol in ater, v/v, buffered with 0.005M KH2 PO4 /H3 PO4 to give an apparent pH value, as measured using a glass electrode, of 5.0, the k' factor value being defined by [formula] where t0 is the retention time in the column of the solvent front and tr is the retention time in the column of the steroid derivative as measured by obtaining the elution profile of the steroid derivative by absorbance at 210 nm.
The structure of the steroid molecule affects its chemical properties and thus its functioning as a drug transporting molecule. We believe that all of the steroid molecules used in the invention facilitate transport by self-associating to form reversed micelles within the membrane across which the drug is being transported; these reversed micelles, it is believed, function as pores, allowing the drug to pass through. A measure of a given steroid molecule's ability to form such reversed micelles is the hydrophobicity of the unconjugated form of the molecule, a property which can be quantified using the k' factor value, which is computed by observing the steroid's retention time in a high-performance liquid chromatography (HPLC) column under the conditions described above. As mentioned above, the k' value of the unconjugated derivative of the steroid should be at least about 4 for the steroid to be suitable in the therapeutic compositions of the invention.
The k' and CMT of the steroids used in the compositions of the invention are influenced by whether the steroid is conjugated at C21 and, if so, by the nature of the conjugating group. Additionally, a polar group at position 16 is essential for solubility (See position E on formula 1). Because the k' factor value is influenced by the polarity of any conjugating group, unconjugated derivatives must be used in numerical comparisons involving steroids which are conjugated with different groups, or comparisons involving both conjugated and unconjugated steroids. Overall hydrophobicity and k' factor value generally decrease as the polarity of the conjugating group increases. However, such decrease is not a reflection of the hydrophobicity of the steroid nucleus. […]

[2] = in vivo
Method: Corticotropin releasing-factor (CRF, a hormone of MW 4,000) (Dr. George Chrousos, National Institute of Health, Bethesda, MD) was dissolved in 0.15 NaCl and mixed with the 2% solution of sodium tauro-24,25-dihydrofusidate. CRF was also prepared without adjuvant. Two sheep were administered 350 mg ketamine intravenously and a total of 460 μg of CRF as a liquid, by drops into each side of the nose of the sheep at time 0. The dose of CRF was approximately 10 μg/kg body weight.

[3] = Intranasal administration of proinsulin to sheep (insulin RIA adjusted for cross-reactivity); type: in vivo; details: for Proinsulin (μU/ml above baseline): Sheep 196 Study 25, 1.5 mg into each nostril
Method: Commercially available proinsulin (Eli Lilly & Co., Indianapolis, Ind.) was mixed with the sodium tauro-24,25-dihydrofusidate solution or in 0.15M NaCl, pH 7.6 to give a final concentration of 6 mg/ml of proinsulin and 1% (w/v) sodium tauro-24,25-dihydrofusidate. Sheep were administered by nasal drops 1.5 mg (250 μl) of the solution into each nostril at time 0. Sheep 25 was administered proinsulin without adjuvant as described above.

Molecule: CC(=O)OC1CC2(C)C(CC(O)C3C4(C)CCC(OC(C)=O)C(C)C4CCC32C)C1=C(CCC=C(C)C)C(=O)O (stereo not drawn) [3-acetoxyl-fusidic acid]
- k' factor value [1]: 26.4

Molecule: Corticotropin releasing-factor without tauro-24,25-dihydrofusidate: corticotropin releasing-factor, a hormone of MW 4,000, prepared without adjuvant
- increase of CRF level [2]: increased only slightly

Molecule: Proinsulin without sodium tauro-24,25-dihydrofusidate: commercially available proinsulin (Eli Lilly) in 0.15M NaCl, pH 7.6, without adjuvant
- Proinsulin (μU/ml above baseline) ([3]; 0 min): 0 μU/ml
- Proinsulin (μU/ml above baseline) ([3]; 10 min): 2.8 μU/ml
- Proinsulin (μU/ml above baseline) ([3]; 15 min): 28 μU/ml
- Proinsulin (μU/ml above baseline) ([3]; 20 min): 56 μU/ml
- Proinsulin (μU/ml above baseline) ([3]; 30 min): 22 μU/ml
- Proinsulin (μU/ml above baseline) ([3]; 60 min): 0 μU/ml
- Proinsulin (μU/ml above baseline) ([3]; 90 min): 0 μU/ml
- Proinsulin (μU/ml above baseline) ([3]; 120 min): 0 μU/ml
- Proinsulin (μU/ml above baseline) ([3]; 180 min): 0 μU/ml
- Proinsulin (μU/ml above baseline) ([3]; 240 min): 2.8 μU/ml
- Proinsulin (μU/ml above baseline) ([3]; +5 min): 0 μU/ml
- Proinsulin (μU/ml above baseline) ([3]; -15 min): 0 μU/ml
- absorption of nasally administered proinsulin ([3]; sheep, nasal drops): absorbed at a slower rate and to a much reduced extent

Other lines, results leading:

- k' factor value [1]: 27.1
Molecule: CC(=O)O[C@H]1C[C@@]2(C)[C@@H](C[C@@H](O)[C@H]3[C@@]4(C)CC[C@@H](O)[C@@H](C)[C@@H]4CC[C@@]32C)/C1=C(\CCCC(C)C)C(=O)O [24,25-dihydrofusidic acid]

- k' factor value [1]: 9.5
Molecule: CC(=O)O[C@@H]1[C@H]2[C@H](C)[C@H](O)CC[C@]2(C)[C@@H]2CC[C@H]3/C(=C(\CCC=C(C)C)C(=O)O)[C@@H](OC(C)=O)C[C@]3(C)[C@@]2(C)[C@H]1O [cephalosporin P1]

- k' factor value [1]: 20.7
Molecule: CC(=O)O[C@H]1C[C@@]2(C)[C@@H](C[C@@H](O)[C@H]3[C@@]4(C)CC[C@@H](O)[C@@H](C)[C@@H]4CC[C@@]32C)/C1=C(\CCC=C(C)C)C(=O)O [fusidic acid, reference compound]
